According to patent publication US20030207838A1:

Target: Fas (CD95) expressed on vascular smooth muscle cells (human) (UniProt P25445)
Experiment: cell-based or functional assay

UniProt P25445, sequence (P25445 26-335): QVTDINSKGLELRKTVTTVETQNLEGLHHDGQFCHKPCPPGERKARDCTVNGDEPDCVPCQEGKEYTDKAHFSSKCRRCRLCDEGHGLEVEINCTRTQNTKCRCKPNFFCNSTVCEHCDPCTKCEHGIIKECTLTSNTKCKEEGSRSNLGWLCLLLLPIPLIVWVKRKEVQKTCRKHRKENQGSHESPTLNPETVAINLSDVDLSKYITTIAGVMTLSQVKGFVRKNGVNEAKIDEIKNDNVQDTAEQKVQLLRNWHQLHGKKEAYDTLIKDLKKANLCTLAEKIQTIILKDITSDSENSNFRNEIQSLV

Substance: anti-Fas antibody IgM clone CH-11 (05-201 Upstate)
- percent of apoptotic cells (hypodiploid DNA content) 16 h after treatment, A20-expressing SMC: 33%
- percent of apoptotic cells (hypodiploid DNA content) 16 h after αFas treatment, non-infected (NI) SMC: 1.9%
- percent of apoptotic cells (hypodiploid DNA content) 16 h after αFas treatment, rAd.β-gal-infected SMC: 2.34%
- percent of apoptotic cells after αFas with Actinomycin D (150 nM), NI and rAd.β-gal infected SMC: 28 to 35%
